In patent publication US20060121032A1 (published 2006):

B1: alemtuzumab K246H (antibody)
chain 1: not shown
chain 2: not shown
B2: alemtuzumab E283H (antibody)
chain 1: not shown
chain 2: not shown
B3: alemtuzumab E272H (antibody)
chain 1: not shown
chain 2: not shown
B4: alemtuzumab E258Y (antibody)
chain 1: not shown
chain 2: not shown
B5: alemtuzumab S324G (antibody)
chain 1: not shown
chain 2: not shown
B6: alemtuzumab G236S (antibody)
chain 1: not shown
chain 2: not shown
B7: alemtuzumab S304T (antibody)
chain 1: not shown
chain 2: not shown
B8: alemtuzumab E283L (antibody)
chain 1: not shown
chain 2: not shown
B9: alemtuzumab K246Y (antibody)
chain 1: not shown
chain 2: not shown
B10: alemtuzumab E258H (antibody)
chain 1: not shown
chain 2: not shown
B11: alemtuzumab E272P (antibody)
chain 1: not shown
chain 2: not shown
B12: alemtuzumab H268D (antibody)
chain 1: not shown
chain 2: not shown
B13: alemtuzumab V284E (antibody)
chain 1: not shown
chain 2: not shown
B14: alemtuzumab R255Y (antibody)
chain 1: not shown
chain 2: not shown
B15: alemtuzumab S267E (antibody)
chain 1: not shown
chain 2: not shown

What follows are binders tested against extracellular region of human V158 FcγRIIIa with C-terminal 6×His-tag and GST-tag (human, UniProt P08637 17-208) (assay: SPR).
Sequence of extracellular region of human V158 FcγRIIIa with C-terminal 6×His-tag and GST-tag (P08637 17-208 F176V): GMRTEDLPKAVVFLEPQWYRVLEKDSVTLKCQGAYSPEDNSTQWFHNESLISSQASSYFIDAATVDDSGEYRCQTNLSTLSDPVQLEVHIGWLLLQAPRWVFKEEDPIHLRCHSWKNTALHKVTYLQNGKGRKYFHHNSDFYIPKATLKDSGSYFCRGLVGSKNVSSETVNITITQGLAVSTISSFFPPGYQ

Binder | Fold WT
B1 | 22.4 fold
B2 | 2.31 fold
B3 | 384 fold
B4 | 1.77 fold
B5 | 14.2 fold
B6 | 6.69 fold
B7 | 12.8 fold
B8 | 2.56 fold
B9 | 7.07 fold
B10 | 5.5 fold
B11 | 1.41 fold
B12 | 5.66 fold
B13 | 1.51 fold
B14 | 1.41 fold
B15 | 2.62 fold
